Measurements: paper PMC11009412, “Pathogenic mutations of human phosphorylation sites affect protein–protein interactions” (Nature Communications, 2024)

B1: NOL8 (protein, UniProt Q76FK4 1-1167, looked up)
Nucleolar protein 8: MKVNRETKRLYVGGLSQDISEADLQNQFSRFGEVSDVEIITRKDDQGNPQKVFAYINISVAEADLKKCMSVLNKTKWKGGTLQIQLAKESFLHRLAQEREAAKAKKEESTTGNANLLEKTGGVDFHMKAVPGTEVPGHKNWVVSKFGRVLPVLHLKNQHKRKIIKYDPSKYCHNLKKIGEDFSNTIPISSLTWELEGGNDPMSKKRRGEFSDFHGPPKKIIKVQKDESSTGSLAMSTRPRRVIERPPLTQQQAAQKRTCDSITPSKSSPVPVSDTQKLKNLPFKTSGLETAKKRNSISDDDTDSEDELRMMIAKEENLQRTTQPSINESESDPFEVVRDDFKSGVHKLHSLIGLGIKNRVSCHDSDDDIMRNDREYDSGDTDEIIAMKKNVAKVKNSTEFSQMEKSTKKTSFKNRENCELSDHCIKLQKRKSNVESALSHGLKSLNRKSPSHSSSSEDADSASELADSEGGEEYNAMMKNCLRVNLTLADLEQLAGSDLKVPNEDTKSDGPETTTQCKFDRGSKSPKTPTGLRRGRQCIRPAEIVASLLEGEENTCGKQKPKENNLKPKFQAFKGVGCLYEKESMKKSLKDSVASNNKDQNSMKHEDPSIISMEDGSPYVNGSLGEVTPCQHAKKANGPNYIQPQKRQTTFESQDRKAVSPSSSEKRSKNPISRPLEGKKSLSLSAKTHNIGFDKDSCHSTTKTEASQEERSDSSGLTSLKKSPKVSSKDTREIKTDFSLSISNSSDVSAKDKHAEDNEKRLAALEARQKAKEVQKKLVHNALANLDGHPEDKPTHIIFGSDSECETEETSTQEQSHPGEEWVKESMGKTSGKLFDSSDDDESDSEDDSNRFKIKPQFEGRAGQKLMDLQSHFGTDDRFRMDSRFLETDSEEEQEEVNEKKTAEEEELAEEKKKALNVVQSVLQINLSNSTNRGSVAAKKFKDIIHYDPTKQDHATYERKRDDKPKESKAKRKKKREEAEKLPEVSKEMYYNIAMDLKEIFQTTKYTSEKEEGTPWNEDCGKEKPEEIQDPAALTSDAEQPSGFTFSFFDSDTKDIKEETYRVETVKPGKIVWQEDPRLQDSSSEEEDVTEETDHRNSSPGEASLLEKETTRFFFFSKNDERLQGSDLFWRGVGSNMSRNSWEARTTNLRMDCRKKHKDAKRKMKPK
B2: SUGP1 (protein, UniProt Q8IWZ8 1-645, looked up)
SURP and G-patch …: MSLKMDNRDVAGKANRWFGVAPPKSGKMNMNILHQEELIAQKKREIEAKMEQKAKQNQVASPQPPHPGEITNAHNSSCISNKFANDGSFLQQFLKLQKAQTSTDAPTSAPSAPPSTPTPSAGKRSLLISRRTGLGLASLPGPVKSYSHAKQLPVAHRPSVFQSPDEDEEEDYEQWLEIKVSPPEGAETRKVIEKLARFVAEGGPELEKVAMEDYKDNPAFAFLHDKNSREFLYYRKKVAEIRKEAQKSQAASQKVSPPEDEEVKNLAEKLARFIADGGPEVETIALQNNRENQAFSFLYEPNSQGYKYYRQKLEEFRKAKASSTGSFTAPDPGLKRKSPPEALSGSLPPATTCPASSTPAPTIIPAPAAPGKPASAATVKRKRKSRWGPEEDKVELPPAELVQRDVDASPSPLSVQDLKGLGYEKGKPVGLVGVTELSDAQKKQLKEQQEMQQMYDMIMQHKRAMQDMQLLWEKAVQQHQHGYDSDEEVDSELGTWEHQLRRMEMDKTREWAEQLTKMGRGKHFIGDFLPPDELEKFMETFKALKEGREPDYSEYKEFKLTVENIGYQMLMKMGWKEGEGLGSEGQGIKNPVNKGTTTVDGAGFGIDRPAELSKEDDEYEAFRKRMMLAYRFRPNPLNNPRRPYY
B3: C19orf43 (protein, UniProt Q9BQ61 1-176, looked up)
Telomerase RNA component …: MAARGRRAEPQGREAPGPAGGGGGGSRWAESGSGTSPESGDEEVSGAGSSPVSGGVNLFANDGSFLELFKRKMEEEQRQRQEEPPPGPQRPDQSAAAAGPGDPKRKGGPGSTLSFVGKRRGGNKLALKTGIVAKKQKTEDEVLTSKGDAWAKYMAEVKKYKAHQCGDDDKTRPLVK
B4: NACC1 (protein, UniProt Q96RE7 1-527, looked up)
Nucleus accumbens-associated …: MAQTLQMEIPNFGNSILECLNEQRLQGLYCDVSVVVKGHAFKAHRAVLAASSSYFRDLFNNSRSAVVELPAAVQPQSFQQILSFCYTGRLSMNVGDQFLLMYTAGFLQIQEIMEKGTEFFLKVSSPSCDSQGLHAEEAPSSEPQSPVAQTSGWPACSTPLPLVSRVKTEQQESDSVQCMPVAKRLWDSGQKEAGGGGNGSRKMAKFSTPDLAANRPHQPPPPQQAPVVAAAQPAVAAGAGQPAGGVAAAGGVVSGPSTSERTSPGTSSAYTSDSPGSYHNEEDEEEDGGEEGMDEQYRQICNMYTMYSMMNVGQTAEKVEALPEQVAPESRNRIRVRQDLASLPAELINQIGNRCHPKLYDEGDPSEKLELVTGTNVYITRAQLMNCHVSAGTRHKVLLRRLLASFFDRNTLANSCGTGIRSSTNDPRRKPLDSRVLHAVKYYCQNFAPNFKESEMNAIAADMCTNARRVVRKSWMPKVKVLKAEDDAYTTFISETGKIEPDMMGVEHGFETASHEGEAGPSAEALQ
B5: PPP1R10 (protein, UniProt Q96QC0 1-940, looked up)
Serine/threonine-protein …: MGSGPIDPKELLKGLDSFLNRDGEVKSVDGISKIFSLMKEARKMVSRCTYLNILLQTRSPEILVKFIDVGGYKLLNNWLTYSKTTNNIPLLQQILLTLQHLPLTVDHLKQNNTAKLVKQLSKSSEDEELRKLASVLVSDWMAVIRSQSSTQPAEKDKKKRKDEGKSRTTLPERPLTEVKAETRAEEAPEKKREKPKSLRTTAPSHAKFRSTGLELETPSLVPVKKNASTVVVSDKYNLKPIPLKRQSNVAAPGDATPPAEKKYKPLNTTPNATKEIKVKIIPPQPMEGLGFLDALNSAPVPGIKIKKKKKVLSPTAAKPSPFEGKTSTEPSTAKPSSPEPAPPSEAMDADRPGTPVPPVEVPELMDTASLEPGALDAKPVESPGDPNQLTRKGRKRKSVTWPEEGKLREYFYFELDETERVNVNKIKDFGEAAKREILSDRHAFETARRLSHDNMEEKVPWVCPRPLVLPSPLVTPGSNSQERYIQAEREKGILQELFLNKESPHEPDPEPYEPIPPKLIPLDEECSMDETPYVETLEPGGSGGSPDGAGGSKLPPVLANLMGSMGAGKGPQGPGGGGINVQEILTSIMGSPNSHPSEELLKQPDYSDKIKQMLVPHGLLGPGPIANGFPPGGPGGPKGMQHFPPGPGGPMPGPHGGPGGPVGPRLLGPPPPPRGGDPFWDGPGDPMRGGPMRGGPGPGPGPYHRGRGGRGGNEPPPPPPPFRGARGGRSGGGPPNGRGGPGGGMVGGGGHRPHEGPGGGMGNSSGHRPHEGPGGGMGSGHRPHEGPGGSMGGGGGHRPHEGPGGGISGGSGHRPHEGPGGGMGAGGGHRPHEGPGGSMGGSGGHRPHEGPGHGGPHGHRPHDVPGHRGHDHRGPPPHEHRGHDGPGHGGGGHRGHDGGHSHGGDMSNRPVCRHFMMKGNCRYENNCAFYHPGVNGPPLP

These molecules were tested on BirA*-FLAG-GATAD1 variants in Flp-In-293 cells (assay: BioID proximity labelling of full-length GATAD1 variants (SILAC)). Settings: GATAD1 WT vs S102P, forward experiment (label swap performed, sign inverted against the H/L ratio), log2 of normalized H/L ratio, significant proteins only.
Assay type: cell-based, human
Source text: The GATAD1 gene variants were ordered in a pTwist ENTR Kozak vector from Twist Bioscience. The genes were then transferred to a pDEST_pcDNA5_BirA_FLAG_Nterm vector[97] using the Gateway Clonase II system (Thermo Fisher Scientific). The resulting vectors, pEXPR_GATAD1-WT_N-term_BirA_FLAG, pEXPR_GATAD1-S102P_N-term_BirA_FLAG, pEXPR_GATAD1-S102D_N-term_BirA_FLAG, and pEXPR_GATAD1-S102A_N-term_BirA_FLAG, were used to generate tetracycline-inducible stable Flp-In^TM-293 T-REx cells. A 6-well plate was co-transfected with 0.5 µg of the pEXPR plasmid and 1 µg of the pOG44 Flp-recombinase expression vector (Thermo Fisher Scientific) using 4.5 µg of PEI (Polysciences) as a transfection reagent. The following day, the cells were trypsinized and transferred to a 10 cm dish containing DMEM supplemented with 10% FCS and 200 µg/ml hygromycin B (Invivogen) for selection. The cells were cultured for approximately 18 days with media exchange every 3 days until visible colonies were observed. After around 18 days, the colonies were trypsinized and transferred to another 10 cm dish for further characterization and experiments.
Stable Flp-In^TM-293 cell lines expressing GATAD1 variants were cultured using SILAC light (Lys0, Arg0) and SILAC heavy (Lys8, Arg10) media, as explained in the cell culture section. After full labeling, cells were split into 15 cm dishes and were treated with 1 μg/mL tetracycline for 24 h to induce the expression of GATAD1. After the induction period, cells were incubated with 50 μM biotin overnight for proximity biotinylation. As a control, wild-type GATAD1 cells, without biotin or tetracycline addition, were used. Samples were multiplexed, as shown in Supplementary Fig. 41A with both forward and reverse label swap (n = 2). Cells were then lysed in lysis buffer (50 mM Tris-HCl pH 7.5, 150 mM NaCl, 1% Triton X-100, 1 mM EDTA, 1 mM EGTA, 0.1% SDS) with freshly added protease inhibitors and 1% sodium deoxycholate. To digest the excess DNA, 1 μl of Benzonase was added, and the samples were incubated for 20 min at 37 °C. Biotinylated proteins were enriched for 3 h at 4 °C using streptavidin-sepharose beads (GE Cat# 17-5113-01). Beads were pre-washed twice with 0.01% BSA and twice with lysis buffer. After enrichment, the beads were washed one time with lysis buffer, two times with washing buffer (50 mM HEPES-KOH pH 8.0, 100 mM KCl, 10% glycerol, 2 mM EDTA, 0.1% NP-40), and six times with 50 mM ammonium bicarbonate. Beads were resuspended in ammonium bicarbonate, and an on-bead protein digest with 1 μg of trypsin followed overnight. The next day, the digested proteins were transferred to a fresh tube and were incubated with 10 mM DTT for 30 min at 37 °C and with 55 mM iodoacetamide for 20 min at 37 °C in the dark. Samples were desalted with StageTips.
Peptides were separated using reversed-phase liquid chromatography (EASY nLC II 1200, Thermo Fisher Scientific) with self-made C18 microcolumns (20 cm long) packed with ReproSil-Pur C18-AQ 1.9 μm resin (Dr. Maisch, cat# r119.aq.0001). The chromatography system was coupled online to the electrospray ion source (Proxeon) of an Orbitrap Exploris 480 mass spectrometer (Thermo Fisher Scientific). The mobile phase consisted of buffer A (0.1% formic acid and 5% acetonitrile) and buffer B (0.1% formic acid and 80% acetonitrile). Peptides were eluted using a gradient with increasing concentrations of buffer B over 110 minutes, at a flow rate of 250 nl/min. Mass spectrometry data was acquired in data-dependent mode with settings for one full scan (resolution: 60,000; m/z range: 350–1600; normalized AGC target: 300%; maximum injection time: 10 ms), followed by top 20 MS/MS scans using higher-energy collisional dissociation (resolution: 15,000; m/z range: 200–2000; normalized AGC target: 100%; maximum injection time: 120 ms; isolation width: 1.3 m/z; normalized collision energy: 28%).
Raw files were analyzed with MaxQuant, version 2.0.3.0. […]

Row | Molecule | Log2_Ratio.H.L.normalized.WT_S102P_forward
1 | B1 | 1.703
2 | B2 | 1.6946
3 | B3 | 2.125
4 | B4 | 1.531
5 | B5 | 1.288

Same assay, conditions: GATAD1 WT vs S102P, forward experiment, normalized H/L ratio, significant proteins only

Row | Molecule | Ratio.H.L.normalized.WT_S102P_forward
6 | B1 | 0.3071
7 | B2 | 0.3089
8 | B3 | 0.2293
9 | B4 | 0.346
10 | B5 | 0.4096

Same assay, conditions: GATAD1 WT vs S102P, reverse experiment, log2 of normalized H/L ratio, significant proteins only

Row | Molecule | Log2_Ratio.H.L.normalized.WT_S102P_reverse
11 | B1 | 1.269
12 | B2 | 1.162
13 | B3 | 1.257
14 | B4 | 1.188
15 | B5 | 1.038

Same assay, conditions: GATAD1 WT vs S102P, reverse experiment, normalized H/L ratio, significant proteins only

Row | Molecule | Ratio.H.L.normalized.WT_S102P_reverse
16 | B1 | 2.4103
17 | B2 | 2.2378
18 | B3 | 2.3903
19 | B4 | 2.2785
20 | B5 | 2.0533
